T1: human B7-H4 (purified monomeric recombinant human protein, ACRO biosystems) (human, UniProt Q7Z7D3 29-258, limits assumed, chemically biotinylated (EZ-Link NHS-LC-Biotin) in the yeast display and competition experiments; non-biotinylated in SPR)
T1 construct: Bought recombinant monomeric protein; also called B7x; B7S1
T1 sequence: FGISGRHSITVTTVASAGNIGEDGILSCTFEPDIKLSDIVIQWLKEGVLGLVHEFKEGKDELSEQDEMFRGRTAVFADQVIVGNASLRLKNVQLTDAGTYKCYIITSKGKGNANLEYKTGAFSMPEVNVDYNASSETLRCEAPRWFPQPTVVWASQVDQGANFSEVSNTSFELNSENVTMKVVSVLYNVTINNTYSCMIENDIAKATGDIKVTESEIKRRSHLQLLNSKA


What was measured:
[1] = target: T1, human B7-H4 (purified monomeric …); test: SPR (Carterra LSA); scFv-Fc captured on anti-human IgG Fc, antigen injected
Protocol: (§1) Finally, the affinity of the 24 clones was determined using high-throughput surface plasmon resonance (SPR). The supernatants were arrayed by non-covalent capture in a medium-density SPR chip previously coupled with an anti-human polyclonal antibody and (at least 4 replicates per clone). Non-biotinylated antigen was used for all affinity measurements and sensorgrams were fitted using a pseudo-first-order kinetic model (Lundström 1994). […] In fact, it is notable that the off rates for some of the tested antibodies are probably better than 10⁻⁵ (Table 7), as indicated by the bunching of matured antibodies at that value (Table 7)—such slow off rates are challenging to accurately measure using SPR. No affinity difference was observed between clones coming from one combo library versus the other.
(§2) The scFv from the final population (round 3, combo libraries) was bulk cloned into a yeast expression vector containing a human IgG1 Fc region to be expressed in the scFv-Fc format. For this, the scFv region was amplified by PCR, digested with BssHII and NheI restriction enzyme (New England Biolabs), and cloned into the pDNL9 vector, 92 clones were analyzed by Sanger sequencing and 24 of these plus the parental were expressed using S. cerevisiae strain YVH10 (ATCC MYA-4940). scFv-Fc fusions were expressed for 72 h at 20° C. in the presence of galactose. The Carterra LSA surface resonance system was used for the affinity measurements. Briefly, anti-Human IgG Fc (Southern Biotech, #2048-01) was covalently coupled to an HC30M chip following the manufacturer's protocols. Crude yeast supernatants containing the scFv-Fc fusions were arrayed on the chip.

[2] = target: T1, human B7-H4 (purified monomeric …); test: SPR (Carterra LSA); scFv-Fc captured on anti-human IgG Fc, antigen injected; asterisk: reached minimum allowed dissociation rate; asterisk: kd at the minimum value allowed (10^-5 s^-1)
Protocol: as §1
as §2, with “The Carterra LSA surface resonance system was used for the affinity measurements. Briefly, anti-Human IgG Fc (Southern Biotech, #2048-01) was covalently coupled to an HC30M chip following the manufacturer's protocols. Crude yeast supernatants containing the scFv-Fc fusions were arrayed on the chip.” left out

[3] = target: T1, human B7-H4 (purified monomeric …); test: SPR (Carterra LSA); scFv-Fc captured on anti-human IgG Fc, antigen injected; asterisk: reached minimum allowed dissociation rate
Protocol: as §1, §2

Binder	KD fold-improvement [1]	Kd [1]	kon [1]	koff [2]	koff [1]	koff [3]
A06 scFv-Fc (scFv, V domains shown, Tested as scFv-Fc fusion (human IgG1 Fc, vector pDNL9) in crude yeast supernatant; Combo 1 library) VH: EVQLVESGGGVVQPGRSLRLSCAASGFTFGDRAMNWVRQAPGKGLEWVSAISGTGATTYYADSVKGRFTISRDNSKNTLYLQMNSLRAEDTAVYYCARKRWYGMDVWGQGTTVTVSS VL: SYELTQPPSVSVAPGKTARITCGGNNIVTKSVHWYQQKPGQAPVLVVYDDSDRPSGIPERFSGSNSGNTATLTISRVEAGDEADYYCQVWDRGMIFGTGTKLTVL	221 fold over parental	≤ 0.034 nM	320000 M⁻¹ s⁻¹	≤ 1e-05 s⁻¹		
Parental (H6.1) scFv-Fc (scFv, V domains shown, Expressed with the 24 clones as scFv-Fc fusion (human IgG1 Fc) in yeast for SPR; also called parental antibody; parental molecule) VH: EVQLVESGGGVVQPGRSLRLSCAASGFTFSSYSMNWVRQAPGKGLEWVSAISGSGGSTYYADSVKGRFTISRDNSKNTLYLQMNSLRAEDTAVYYCARKRWYGMDVWGQGTTVTVSS VL: SYELTQPPSVSVAPGKTARITCGGNNIGSKSVHWYQQKPGQAPVLVVYDDSDRPSGIPERFSGSNSGNTATLTISRVEAGDEADYYCQVWDSRTYVFGTGTKLTVL	1 fold over parental	7.43 nM	450000 M⁻¹ s⁻¹		0.0033 s⁻¹	
G05 scFv-Fc (scFv, V domains shown, Tested as scFv-Fc fusion (human IgG1 Fc, vector pDNL9) in crude yeast supernatant; Combo 1 library; also called G5) VH: EVQLVESGGGVVQPGRSLRLSCAASGFTFSSRSMNWVRQAPGKGLEWVSAISGSGSTVYYADSVKGRFTISRDNSKNTLYLQMNSLRAEDTAVYYCARKRWYGMDVWGQGTTVTVSS VL: SYELTQPPSVSVAPGKTARITCGGNKLGDKWVHWYQQKPGQAPVLVVYEDVDRPSGIPERFSGSNSGNTATLTISRVEAGDEADYYCQVWDSRTYVFGTGTKLTVL	119 fold over parental	≤ 0.063 nM	160000 M⁻¹ s⁻¹			≤ 1e-05 s⁻¹
A12 scFv-Fc (scFv, V domains shown, Tested as scFv-Fc fusion (human IgG1 Fc, vector pDNL9) in crude yeast supernatant; Combo 2 library) VH: EVQLVESGGGVVQPGRSLRLSCAASGFTFDNRAMNWVRQAPGKGLEWVSAISSSGSTMYYADSVKGRFTISRDNSKNTLYLQMNSLRAEDTAVYYCARKRWYGMDVWGQGTTVTVSS VL: SYELTQPPSVSVAPGKTARITCGGNNIGSKSVHWYQQKPGQAPVLVVYDDSDRPSGIPERFSGSNSGNTATLTISRVEAGDEADYYCQVWDSRTYVFGTGTKLTVL	53 fold over parental	0.139 nM	230000 M⁻¹ s⁻¹		3.2e-05 s⁻¹	
B01 scFv-Fc (scFv, V domains shown, Tested as scFv-Fc fusion (human IgG1 Fc, vector pDNL9) in crude yeast supernatant; Combo 1 library) VH: EVQLVESGGGVVQPGRSLRLSCAASGFTFSDRAMNWVRQAPGKGLEWVSAISYEGRTQYYADSVKGRFTISRDNSKNTLYLQMNSLRAEDTAVYYCARKRWYGMDVWGQGTTVTVSS VL: SYELTQPPSVSVAPGKTARITCGGNNIGVKSVHWYQQKPGQAPVLVVYDDSDRPSGIPERFSGSNSGNTATLTISRVEAGDEADYYCQVWDSRTYVFGTGTKLTVL	231 fold over parental	≤ 0.032 nM	310000 M⁻¹ s⁻¹			≤ 1e-05 s⁻¹
A07 scFv-Fc (scFv, V domains shown, Tested as scFv-Fc fusion (human IgG1 Fc, vector pDNL9) in crude yeast supernatant; Combo 2 library) VH: EVQLVESGGGVVQPGRSLRLSCAASGFTFSSRSMNWVRQAPGKGLEWVSAISGSGSTVYYADSVKGRFTISRDNSKNTLYLQMNSLRAEDTAVYYCARKRWYGMDVWGQGTTVTVSS VL: SYELTQPPSVSVAPGKTARITCGGNNIGSKSVHWYQQKPGQAPVLVVYDDSDRPSGIPERFSGSNSGNTATLTISRVEAGDEADYYCQVWDSRTYVFGTGTKLTVL	27 fold over parental	0.277 nM	170000 M⁻¹ s⁻¹		4.7e-05 s⁻¹	
B02 scFv-Fc (scFv, V domains shown, Tested as scFv-Fc fusion (human IgG1 Fc, vector pDNL9) in crude yeast supernatant; Combo 1 library) VH: EVQLVESGGGVVQPGRSLRLSCAASGFTFSSRSMNWVRQAPGKGLEWVSAISGSGSTVYYADSVKGRFTISRDNSKNTLYLQMNSLRAEDTAVYYCARKRWYGMDVWGQGTTVTVSS VL: SYELTQPPSVSVAPGKTARITCGGNNIGVKSVHWYQQKPGQAPVLVVYDDSDRSPGIPERFSGSNSGNTATLTISRVEAGDEADYYCQVWDSRTYVFGTGTKLTVL	127 fold over parental	0.059 nM	180000 M⁻¹ s⁻¹		1.1e-05 s⁻¹	
B10 scFv-Fc (scFv, V domains shown, Tested as scFv-Fc fusion (human IgG1 Fc, vector pDNL9) in crude yeast supernatant; Combo 2 library) VH: EVQLVESGGGVVQPGRSLRLSCAASGFTFSTRAMNWVRQAPGKGLEWVSAISGTGDTTYYADSVKGRFTISRDNSKNTLYLQMNSLRAEDTAVYYCARKRWYGMDVWGQGTTVTVSS VL: SYELTQPPSVSVAPGKTARITCGGNNIGSKSVHWYQQKPGQAPVLVVYDDSDRPSGIPERFSGSNSGNTATLTISRVEAGDEADYYCQVWGRYQMIFGTGTKLTVL	64 fold over parental	0.116 nM	260000 M⁻¹ s⁻¹		2.9e-05 s⁻¹	
B05 scFv-Fc (scFv, V domains shown, Tested as scFv-Fc fusion (human IgG1 Fc, vector pDNL9) in crude yeast supernatant; Combo 1 library) VH: EVQLVESGGGVVQPGRSLRLSCAASGLTFSSRAMNWVRQAPGKGLEWVSAISGTGATTYYADSVKGRFTISRDNSKNTLYLQMNSLRAEDTAVYYCARKRWYGMDVWGQGTTVTVSS VL: SYELTQPPSVSVAPGKTARITCGGNNIGSKMVHWYQQKPGQAPVLVVYDDSDRPSGIPERFSGSNSGNTATLTISRVEAGDEADYYCQVWDRGMIFGTGTKLTVL	109 fold over parental	≤ 0.068 nM	150000 M⁻¹ s⁻¹			≤ 1e-05 s⁻¹
